# Data as given in PMC3141246 (Nucleic Acids Research, 2011).
# B1: Rpp20, protein subunit of human nuclear RNase P (natural protein, UniProt O75817 1-140, looked up)
# chain: MAENREPRGAVEAELDPVEYTLRKRLPSRLPRRPNDIYVNMKTDFKAQLARCQKLLDGGARGQNACSEIYIHGLGLAINRAINIALQLQAGSFGSLQVAANTSTVELVDELEPETDTREPLTRIRNNSAIHIRVFRVTPK
# Molecular target: the molecule itself
# Assay: native gel or EMSA
protein,measurement,value
B1,binding result,binds
